# From US20170052184A1 (published 2017)
# T1: HCV bt-134-154 (Peptide 1, HCVc 134-154) (Hepatitis C virus (numbering per HCV-1), biotin (carboxy-terminal per; N-terminal per))
# T1 peptide: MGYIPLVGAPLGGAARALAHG
# T2: HCV bt-141-161 (Peptide 2, HCVc 141-161) (Hepatitis C virus (numbering per HCV-1), biotin (carboxy-terminal per; N-terminal per))
# T2 peptide: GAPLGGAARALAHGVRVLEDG
# T3: HCV bt-151-171 (Peptide 3, HCVc 151-171) (Hepatitis C virus (numbering per HCV-1), biotin (carboxy-terminal per; N-terminal per))
# T3 peptide: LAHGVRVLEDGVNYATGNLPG
# How the values were obtained:
# [1] = target: T1, HCV bt-134-154 (Peptide 1, HCVc 134-154); assay: EIA, captured mAb + biotin peptide
# [2] = target: T2, HCV bt-141-161 (Peptide 2, HCVc 141-161); assay: EIA, captured mAb + biotin peptide
# [3] = target: T3, HCV bt-151-171 (Peptide 3, HCVc 151-171); assay: EIA, captured mAb + biotin peptide
# [4] = target: T4, HCV Core 134-171-TT Peptide (hepatitis C virus (HCV-1 numbering) …); assay: SPR, captured mAb, peptide analyte
# T4 construct: also called ALRZ-9 peptide
Binder,Reactivity (OD 492 nm) [1] [OD units],Reactivity (OD 492 nm) [2] [OD units],Reactivity (OD 492 nm) [3] [OD units],Kd [4] [pM],koff [4] [s⁻¹],kon [4] [M⁻¹ s⁻¹]
"HCV 208A-1064 (antibody, V domains shown) VH: EVQLQQSGPELVKPGASVKISCKTSGYTFTEYAMHWMKQSHGKSLEWIGGINPTNGDTIYNQKFKDKAKLTVDRSSSTAYMELRSLTSDDSALFYCARRELDYFASWGQGTTLTVSS VL: DIVLTQSPASLIVSLGQTATISCRASQSVSTSRFSYLHWIQQKPGQPPKLLIKYASNLESGVPVRFSGSGSGTDFTLNIHPVEEEDTATYFCQHSWEFPFTFGSGTKLKIKR",0.1,3.5,0.12,,,
"HCV 208A-293 (antibody, V domains shown) VH: EVQLQQSGPELVKPGASVKISCKASGFTFTEYAMHWMKQSHGKSLEWIGGINPTNGDAIYNQKFKDKAKLTVDRSSSTAYMELRSLTSDDSALFYCARRELDYFPSWGQGTTLTVSS VL: DIVLTQSPASLIVSLGQRATISCRASQSVSTSRFSYVHWIQQKPGQPPKLLIKYASNLESGVPVRFSGSGSGTDFILNIHPVEEEDTATYFCQHSWEFPFTFGSGTKLEIKR",0.08,2.42,0.11,,,
"HCV 208B-1096 (antibody, V domains shown) VH: QVQLQQSGAGLAKPGASVKMSCKASGYTFTANKMHWAKQRPGQGLEWIGYIDPSSGYTEYNHKIQYKATLTADTSSSTAYMQLSTLTFEDSAVYYCTNFAYWGQGTLVTVSA VL: DIVMTQTPLTLSVTIGQPASISCKSSQSLLFTNGKTYLNWFLQRPGQSPKRLIYLLSKLDSGVPDRFSGSGSGTDFTLKISRVEAEDLGVYYCLQSTYFPLTFGAGTKLELKR",,0.13,3.56,,,
"HCV 208B-408 (antibody, V domains shown) VH: EVKLVESGGGLVQPGGSLRLSCASSGFTFTDYYMSWVRQPPGKALEWLGFIRNKAYGYTTEFSASVNGRFTISRDDSQSVPYLQMNTLRAEDSATYYCARVLYYDYGGFAYWGQGTLVTVST VL: DIQMTQSPASLSASVGETVTITCRASGNIHTYLAWYQQKQGKSPQLLVYNANTLADGVPSRFSGSGSGTQFSLKINSLQPDDFGSYYCQHFWSAPWTFGGGTQLEIKR",0.81,,0.16,,,
"HCV 208B-174 (antibody, V domains shown) VH: EVKLEESGGGLVQPGGSMKLSCVASGFSFSSYWMSWVRQSPEKGLDWVAEIRLRSDNYATHYAESVKGRFTISRDDSISRLYLQMNTLRAEDTGIYYCTWMTYWGQGTLVTVSA VL: QNVLTQSPAIMSASPGEKVTMSCSASSSVTYMFWYQLKPESSPRLLIYDTSNLASGVPVRFSGSGSGTSYSLTISRMEAEDAATYYCQEWSSYPLTFGAGTKLDLKR",,,,250,0.00018,760000
"HCV 208A-983 (antibody, V domains shown) VH: QGQMQQSGAELVKPGASVKLSCKTSGFTFSSSYFSWLKQKPGQSLEWIAWIYAGTGNTIYNQKFTDKAQLTVDTASSTAFMQLSSLTIEDSAIYYCAISGTGFTYWGQGTLVTVSA VL: DVLMTQTPLSLPVNLGDQASISCRSSQSLLHSNGNTYLEWFLQKPGQSPKLLIYNVSNRFSGVPDRFSGSGSGTDFTLKISRVEAEDLGVYYCFQGSHVPFTFGSGTKLAIKR",,,,460,4.6e-05,97000
"HCV 208B-471 (antibody, V domains shown) VH: QGQLQQSGPVLVKPGASEILYCKTSGFTFSSTYISWLKQKPGQSLEWIAWIYAGTGATNYNQKFTGKAQLTVDASSNTAYMHFSGLTPEDSAIYYCAISGAGVYWGQGTLVTVSA VL: DVVMTQTPLSLPVSLGDQASISCRSSQSLLHSNGNTYLEWYLQKPGQSPNLLIYNVSNRFSGVPDRFSGSGSGTDFALKISRVGAEDLGVYYCFQGSHVPLTFGAGTKLELKR",,,,250,5.5e-05,220000
"HCV 208A-692 (antibody, V domains shown) VH: QGQMQQSGAELAKPGASVKLSCKTSGFTFSSSYISWLKQKPGQSLEWIAWIFAGTGNTNYNQKFTDKAQLTVDTSSSTAYMQLSSLTTEDSAIYYCAISGTGFTYWGQGTLVTVSA VL: EVLMTQSPLSLPVSLGDQASISCRSSQSLEHSNGNTYLEWFLQRPGQPPKLLIYKVSSRFSGVPDRFSGSGSGTDFTLKISRVEAEDLGVYYCFQGSHVPFTFGSGTKLAIKR",3.67,,0.07,,,
